# Source: patent US20240327495A1 (OXFORD UNIVERSITY INNOVATION, published 2024)
# B1: anti-GTD gastrobody GT01 (designed binder, not shown: small tags and cut ends)
# chain: DFVLDNEGNPLENGGTYYILSDYGRQLFGGIRAAPTGNERCPLTVVQSLFRNHRDKGIGTIISSPYRIRFIAEGHPLSLKFDSFAVIMLCVGIPTEWSVVEDLPEGPAVKIGENKDAMDGWFRLERVSDDEFNNYKLVFCPQQAEDDKCGDIGISIDHDDGTRRLVVSKNKPLVVQFQKLDKESL
# notes: also called anti-GTD (GT01); His6-Thrombin site-SpyTag003-GT01
# B2: GT01 R63A (designed binder, not shown: small tags and cut ends)
# chain: DFVLDNEGNPLENGGTYYILSDYGRQLFGGIRAAPTGNERCPLTVVQSLFRNHRDKGIGTIISSPYAIRFIAEGHPLSLKFDSFAVIMLCVGIPTEWSVVEDLPEGPAVKIGENKDAMDGWFRLERVSDDEFNNYKLVFCPQQAEDDKCGDIGISIDHDDGTRRLVVSKNKPLVVQFQKLDKESL
# B3: anti-GTD gastrobody GT44 (designed binder, not shown: small tags and cut ends)
# chain: DFVLDNEGNPLENGGTYYILSDYGRQLFGGIRAAPTGNERCPLTVVQSLFRNHRDKGIGTIISSPYRIRFIAEGHPLSLKFDSFAVIMLCVGIPTEWSVVEDLPEGPAVKIGENKDAMDGWFRLERVNPSNGNNYKLVFCPQQAEDDKCGDIGISIDHDDGTRRLVVSKNKPLVVQFQKLDKESL
# B4: anti-CROP gastrobody G9 (designed binder, not shown: small tags and cut ends)
# chain: DFVLDNEGNPLENGGTYYILSHPDLFGGIRAAPTGNERCPLTVVQSLYLFDKGIGTIISSPYRIRFIAEGHPLSLKFDSFAVIMLCVGIPTEWSVVEDLPEGPAVKIGENKDAMDGWFRLERVSDDEFNNYKLVFCPQQAEDDKCGDIGISIDHDDGTRRLVVSKNKPLVVQFQKLDKESL
# B5: anti-CROP gastrobody T12 (designed binder, not shown: small tags and cut ends)
# chain: DFVLDNEGNPLENGGTYYILSIAGTFGGIRAAPTGNERCPLTVVQSLVFPDKGIGTIISSPYRIRFIAEGHPLSLKFDSFAVIMLCVGIPTEWSVVEDLPEGPAVKIGENKDAMDGWFRLERVSDDEFNNYKLVFCPQQAEDDKCGDIGISIDHDDGTRRLVVSKNKPLVVQFQKLDKESL
# notes: also called anti-CROP clone T12; anti-CROP (T12)
# B6: anti-CROP gastrobody G22 (designed binder, not shown: small tags and cut ends)
# chain: DFVLDNEGNPLENGGTYYILSLQNRFGGIRAAPTGNERCPLTVVQSHDFMDKGIGTIISSPYRIRFIAEGHPLSLKFDSFAVIMLCVGIPTEWSVVEDLPEGPAVKIGENKDAMDGWFRLERVSDDEFNNYKLVFCPQQAEDDKCGDIGISIDHDDGTRRLVVSKNKPLVVQFQKLDKESL
# B7: anti-CROP gastrobody T42 (designed binder, not shown: small tags and cut ends)
# chain: DFVLDNEGNPLENGGTYYILSVPHQFGGIRAAPTGNERCPLTVVQSRNKWDKGIGTIISSPYRIRFIAEGHPLSLKFDSFAVIMLCVGIPTEWSVVEDLPEGPAVKIGENKDAMDGWFRLERVSDDEFNNYKLVFCPQQAEDDKCGDIGISIDHDDGTRRLVVSKNKPLVVQFQKLDKESL
# B8: anti-GTD gastrobody GT47 (designed binder, not shown: small tags and cut ends)
# chain: DFVLDNEGNPLENGGTYYILSDYGRQLFGGIRAAPTGNERCPLTVVQSLFRNHRDKGIGTIISSPYRIRFIAEGHPLSLKFDSFAVIMLCVGIPTEWSVVEDLPEGPAVKIGENKDAMDGWFRLERVRPTSSTGNNYKLVFCPQQAEDDKCGDIGISIDHDDGTRRLVVSKNKPLVVQFQKLDKESL
# Tests used:
# trypsin = target: T1, trypsin (cow, UniProt P00760 24-246); test: plate assay, trypsin-coated wells, bound gastrobody detected with biotinylated GTD and streptavidin-HRP
# T1 construct: also called trypsin from cow pancreas (T1426, Merck)
# [1] = target: T2, C. difficile toxin B glucosyltransferase domain (GTD, residues 2-543) (Clostridium difficile, UniProt P18177 2-543)
# [2] = target: T3, combined repetitive oligopeptide domain of C. difficile toxin A (residues 2304-2710, CROP) (Clostridium difficile, UniProt P16154 2304-2710); test: ELISA on antigen-coated wells, anti-SBTI antibody detection
# T3 construct: range 2304-2710; also called AviTag-His6-CROP; TcdA CROP
# hen egg lysozyme (HEL) = hen egg lysozyme (HEL) (hen, UniProt P00698 19-147); test: ELISA, antigen-coated wells, 500 nM gastrobody, detected with polyclonal anti-SBTI antibody
# [3] = target: T2, C. difficile toxin B …; test: SPR, kinetic analysis, biotinylated AviTag-His6-GTD captured on the chip
# [4] = target: T2, C. difficile toxin B …; test: SPR, GTD
# [5] = target: T2, C. difficile toxin B …; test: SPR, immobilised GTD
# [6] = target: T3, combined repetitive oligopeptide domain …; test: SPR, equilibrium analysis, biotinylated AviTag-His6-CROP captured on the chip
# [7] = target: T2, C. difficile toxin B …; test: ELISA on antigen-coated wells, anti-SBTI antibody detection
# [8] = target: T2, C. difficile toxin B …; test: SPR, immobilised GTD; remark: listed apart in the source
binder,measurement,setting,value
B1,EC50 (read off the curve),trypsin,~20 nM
same,EC50 (read off the curve),[1],~7 nM
same,binding result,[2],no binding (tested: 500 nM gastrobody)
same,binding result,hen egg lysozyme (HEL),no binding (tested: 500 nM)
same,Kd,[3],85 nM
same,koff,[3],0.036 s⁻¹
same,kon,[3],420000 M⁻¹ s⁻¹
B2,Kd,[4],78.7 nM
same,binding result,trypsin,no binding (tested: 200 nM)
B3,Kd,[5],17.4 nM
same,koff,[5],0.022 s⁻¹
same,kon,[5],1.3e+06 M⁻¹ s⁻¹
B4,Kd,[6],4600 nM
B5,binding result,[7],no binding (tested: 500 nM gastrobody)
same,Kd,[6],1700 nM
same,binding result,hen egg lysozyme (HEL),no binding (tested: 500 nM)
B6,Kd,[6],~50000 nM
B7,Kd,[6],7300 nM
B8,fold improvement of affinity against GT01,[8],~8 fold
same,Kd,[5],10.3 nM
same,koff,[5],0.022 s⁻¹
same,kon,[5],2.1e+06 M⁻¹ s⁻¹
